Assays:
[1] = molecular target: T1, human CD19 on Raji cells (human, UniProt P15391 20-556); test: FACS on Raji cells
T1 construct: whole, on cells
T1 sequence (looked up): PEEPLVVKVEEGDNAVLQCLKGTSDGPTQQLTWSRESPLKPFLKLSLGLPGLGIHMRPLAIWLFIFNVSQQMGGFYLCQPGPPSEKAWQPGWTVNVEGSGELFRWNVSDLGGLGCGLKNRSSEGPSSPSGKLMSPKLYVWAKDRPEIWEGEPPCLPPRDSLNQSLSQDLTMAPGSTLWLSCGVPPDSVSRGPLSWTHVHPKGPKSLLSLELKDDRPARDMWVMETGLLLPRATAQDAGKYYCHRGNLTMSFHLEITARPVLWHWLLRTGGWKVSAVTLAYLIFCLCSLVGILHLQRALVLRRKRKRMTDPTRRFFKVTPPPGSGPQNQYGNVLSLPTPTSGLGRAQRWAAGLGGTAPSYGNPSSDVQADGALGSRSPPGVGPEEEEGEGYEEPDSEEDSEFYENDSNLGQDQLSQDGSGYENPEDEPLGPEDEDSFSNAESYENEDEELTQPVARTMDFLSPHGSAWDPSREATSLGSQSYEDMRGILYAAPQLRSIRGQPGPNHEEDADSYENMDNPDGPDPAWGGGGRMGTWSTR
Procedure: (§1) After the digestion was terminated, the cells were washed 2 times with a PBS buffer; and for suspension cell Raji, the supernatant of the medium was discarded by directly centrifugation, and the cell pellet was washed 2 times with PBS. After counting the cells in the previous step, the cell pellet was resuspended with [PBS+2% (w/w) BSA] blocking solution to 2×10⁶ cells/ml, and added to a 96-well FACS reaction plate at 50 μl/well, and then the sample to be tested was added at 50 μl/well, and incubated on ice for 2 h. The obtained mixture was centrifuged and washed 3 times with a PBS buffer. […] The obtained mixture was centrifuged and washed 5 times with a PBS buffer, and FACS (FACS Canto™, purchased from BD Company) was used for detection and result analysis. Data analysis was performed by software (FlowJo) to obtain the mean fluorescence intensity (MFI) of the cells. And then software (GraphPad Prism8) was used for analysis, data fitting, and EC50 value calculation. […] The same method was used to detect the binding of the chimeric antibodies to endogenous CD19-negative cells, MoLT4 cells (purchased from ATCC, CRL-1582), and CHO-K1 cells.

[2] = molecular target: T2, Human CD19-his protein (human, UniProt P15391 20-291); test: ELISA, coated human CD19-His
T2 construct: bought protein; also called recombinant human CD19-His; CD19 full-length protein; not shown: His tag
T2 sequence (looked up): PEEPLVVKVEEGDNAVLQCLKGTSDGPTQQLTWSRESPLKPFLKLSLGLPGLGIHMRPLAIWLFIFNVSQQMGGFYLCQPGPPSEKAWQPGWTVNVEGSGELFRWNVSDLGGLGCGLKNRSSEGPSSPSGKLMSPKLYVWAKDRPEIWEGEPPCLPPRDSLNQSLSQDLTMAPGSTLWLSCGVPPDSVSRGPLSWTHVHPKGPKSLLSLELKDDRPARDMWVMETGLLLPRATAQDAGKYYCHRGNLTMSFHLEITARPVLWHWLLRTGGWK
Procedure: Human CD19-his protein (purchased from ACROBiosystems, catalog number: CD9-H52H2) was diluted with PBS to a final concentration of 4 μg/mL, and then added to a 96-well ELISA plate at 100 μl/well. The plate was sealed with a plastic film and incubated overnight at 4° C., the plate was washed 2 times with PBS the next day, and then a blocking solution [PBS+2% (w/w) BSA] was added for blocking at room temperature for 2 h. The blocking solution was poured off, and 100 nM gradiently diluted CD19 chimeric antibody or control antibody was added at 50 μl/well. After incubation at 37° C. for 2 h, the plate was washed 3 times with PBS. […] TMB substrate was added at 50 μl/well, and incubated at room temperature for 10 min, and then a stop solution (1.0 N HCl) was added at 50 μl/well. The OD450 nm values were read by an ELISA microplate reader (Multimode Plate Reader, EnSight, purchased from Perkin Elmer).

[3] = molecular target: T3, human CD19 on CHO-K1-human CD19 cells (human, UniProt P15391 20-556); test: FACS on CHO-K1-human CD19 cells
T3 construct: whole, on cells; also called CHO-K1-human CD19-2C8
T3 sequence (looked up): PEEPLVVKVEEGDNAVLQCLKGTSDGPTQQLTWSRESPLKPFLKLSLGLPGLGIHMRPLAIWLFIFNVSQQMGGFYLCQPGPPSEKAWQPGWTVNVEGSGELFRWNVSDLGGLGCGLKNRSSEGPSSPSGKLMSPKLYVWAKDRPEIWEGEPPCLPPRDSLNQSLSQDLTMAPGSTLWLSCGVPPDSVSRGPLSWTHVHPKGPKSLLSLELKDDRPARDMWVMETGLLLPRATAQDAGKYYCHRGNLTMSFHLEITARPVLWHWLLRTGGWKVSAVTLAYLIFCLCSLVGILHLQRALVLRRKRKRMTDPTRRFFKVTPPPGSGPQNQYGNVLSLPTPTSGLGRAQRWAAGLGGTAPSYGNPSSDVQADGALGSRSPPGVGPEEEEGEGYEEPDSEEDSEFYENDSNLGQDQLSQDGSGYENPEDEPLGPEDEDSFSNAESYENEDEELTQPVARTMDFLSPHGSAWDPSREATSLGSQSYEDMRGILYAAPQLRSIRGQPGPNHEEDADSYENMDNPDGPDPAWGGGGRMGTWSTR
Procedure: as §1

[4] = molecular target: T2, Human CD19-his protein; test: ELISA on coated human CD19-His
[5] = molecular target: T4, human CD19 exon1-3-His tag protein (human, UniProt P15391 20-186, limits assumed); test: ELISA, coated human CD19 exon 1-3-His
T4 construct: membrane-distal part of the extracellular region, made in HEK293E cells; not shown: His tag
T4 sequence (looked up): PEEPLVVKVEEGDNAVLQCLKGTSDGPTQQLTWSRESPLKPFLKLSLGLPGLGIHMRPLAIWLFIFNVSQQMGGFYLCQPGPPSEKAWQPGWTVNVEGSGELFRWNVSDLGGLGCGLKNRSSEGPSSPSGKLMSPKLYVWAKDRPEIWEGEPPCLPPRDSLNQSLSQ

[6] = molecular target: T2, Human CD19-his protein; test: SPR Biacore, method of example 7.1, human CD19-His
Procedure: A sample buffer and a running buffer were HBS-EP+ (10 mM HEPES, 150 mM NaCl, 3 mM EDTA and 0.05% surfactant P20) (GE Healthcare; BR-1006-69). The flow-through cell was set to 25° C. The sample block was set to 16° C. Both were pretreated with the running buffer. In each cycle, an antibody to be detected was first captured with a Protein A chip, and then a single concentration of CD19 antigen protein was injected. The binding and dissociation processes of the antibody and the antigen protein were recorded, and finally Glycine pH 1.5 (GE Healthcare; BR-1003-54) was used to complete chip regeneration. The binding was measured by injecting different concentrations of recombinant human CD19-His proteins in a solution for 240 s with a flow rate of 30 μl/min. The concentration started from 200 nM (see the detailed results for the actual concentration in the test) and was diluted at 1:1, making a total of 5 concentrations. The dissociation phase was monitored for up to 600 s and was triggered by switching from sample solution to running buffer. The surface was regenerated by washing with a 10 mM glycine solution (pH 1.5) for 30 s at a flow rate of 30 μl/min. Bulk refractive index difference was corrected by subtracting the response obtained from the goat anti-human Fc surface. Blank injection was also subtracted (=double reference). For calculation of apparent KD and other kinetic parameters, Langmuir 1:1 model was used.
SPR (biacore) detection and data analysis were performed according to the method in example 7.1.

B1: F3.121.4-L1H2 (antibody, mouse IgG1, kappa, V domains shown)
VH: EVQLVQSGAEVKKPGASVKVSCKASGYTFTNYWMHWVRQAPGQGLEWMGEIDPSDNYANYNQEFQGRVTITVDKSASTAYMELSSLRSEDTAVYYCARHDGYFGALDYWGQGTTVTVSS
VL: EIVLTQSPATLSLSPGERATLSCSASSSISSNYLHWYQQKPGQAPRFLIYRTSNLASGIPARFSGSGSGTDFTLTISSLEPEDFAVYYCQQASSIPRMFTFGQGTKLEIKR
notes: humanized antibody of F3.121.4, VL1+VH2, murine IgG1 constant regions
EC50 [1]: 0.43 nM | Maximum mean fluorescence intensity [1]: 31700 MFI | OD450 at 0.0001 nM [2]: 0.1 OD450 | OD450 at 0.001 nM [2]: 0.13 OD450 | OD450 at 0.01 nM [2]: 0.39 OD450 | OD450 at 0.10 nM [2]: 1.7 OD450 | OD450 at 1.00 nM [2]: 2.68 OD450 | OD450 at 10 nM [2]: 2.58 OD450 | OD450 at 100 nM [2]: 3 OD450 | EC50 [3]: 1.23 nM | Maximum mean fluorescence intensity [3]: 54200 MFI | EC50 (read off the curve) [4]: ~0.05 nM | OD450 at 0.0001 nM [5]: 0.05 OD450 | OD450 at 0.001 nM [5]: 0.05 OD450 | OD450 at 0.01 nM [5]: 0.05 OD450 | OD450 at 0.10 nM [5]: 0.05 OD450 | OD450 at 1.00 nM [5]: 0.05 OD450 | OD450 at 10 nM [5]: 0.06 OD450 | OD450 at 100 nM [5]: 0.09 OD450 | Kd [6]: 0.00058 nM | koff [6]: 6.84e-08 s⁻¹ | kon [6]: 118000 M⁻¹ s⁻¹

B2: F3.121.4-L1H1 (antibody, mouse IgG1, kappa, V domains shown)
VH: EVQLVQSGAEVKKPGASVKVSCKASGYTFTNYWMHWVRQAPGQRLEWMGEIDPSDNYANYNQEFQGRVTITVDKSASTAYMELSSLRSEDTAVYYCARHDGYFGALDYWGQGTTVTVSS
VL: EIVLTQSPATLSLSPGERATLSCSASSSISSNYLHWYQQKPGQAPRFLIYRTSNLASGIPARFSGSGSGTDFTLTISSLEPEDFAVYYCQQASSIPRMFTFGQGTKLEIKR
notes: humanized antibody of F3.121.4, VL1+VH1, murine IgG1 constant regions
EC50 [1]: 0.43 nM | Maximum mean fluorescence intensity [1]: 30500 MFI | OD450 at 0.0001 nM [2]: 0.12 OD450 | OD450 at 0.001 nM [2]: 0.16 OD450 | OD450 at 0.01 nM [2]: 0.44 OD450 | OD450 at 0.10 nM [2]: 1.79 OD450 | OD450 at 1.00 nM [2]: 2.73 OD450 | OD450 at 10 nM [2]: 2.64 OD450 | OD450 at 100 nM [2]: 2.84 OD450 | EC50 [3]: 1.18 nM | Maximum mean fluorescence intensity [3]: 51600 MFI | EC50 (read off the curve) [4]: ~0.05 nM | OD450 at 0.0001 nM [5]: 0.07 OD450 | OD450 at 0.001 nM [5]: 0.06 OD450 | OD450 at 0.01 nM [5]: 0.06 OD450 | OD450 at 0.10 nM [5]: 0.07 OD450 | OD450 at 1.00 nM [5]: 0.08 OD450 | OD450 at 10 nM [5]: 0.08 OD450 | OD450 at 100 nM [5]: 0.11 OD450 | Kd [6]: 0.0284 nM | koff [6]: 3.45e-06 s⁻¹ | kon [6]: 121000 M⁻¹ s⁻¹

B3: F3.121.4-L1H3 (antibody, mouse IgG1, kappa)
heavy: EVQLVQSGAEVKKPGASVKVSCKASGYTFTNYWMHWVRQRPGQGLEWMGEIDPSDNYANYNQEFQGRVTITVDKSASTAYMELSSLRSEDTAVYYCARHDGYFGALDYWGQGTTVTVSSAKTTPPSVYPLAPGSAAQTNSMVTLGCLVKGYFPEPVTVTWNSGSLSSGVHTFPAVLQSDLYTLSSSVTVPSSTWPSETVTCNVAHPASSTKVDKKIVPRDCGCKPCICTVPEVSSVFIFPPKPKDVLTITLTPKVTCVVVDISKDDPEVQFSWFVDDVEVHTAQTQPREEQFNSTFRSVSELPIMHQDWLNGKEFKCRVNSAAFPAPIEKTISKTKGRPKAPQVYTIPPPKEQMAKDKVSLTCMITDFFPEDITVEWQWNGQPAENYKNTQPIMDTDGSYFVYSKLNVQKSNWEAGNTFTCSVLHEGLHNHHTEKSLSHSPGK
light: EIVLTQSPATLSLSPGERATLSCSASSSISSNYLHWYQQKPGQAPRFLIYRTSNLASGIPARFSGSGSGTDFTLTISSLEPEDFAVYYCQQASSIPRMFTFGQGTKLEIKRADAAPTVSIFPPSSEQLTSGGASVVCFLNNFYPKDINVKWKIDGSERQNGVLNSWTDQDSKDSTYSMSSTLTLTKDEYERHNSYTCEATHKTSTSPIVKSFNRNEC
notes: humanized antibody of F3.121.4, VL1+VH3, murine IgG1 constant regions
EC50 [1]: 0.46 nM | Maximum mean fluorescence intensity [1]: 32000 MFI | OD450 at 0.0001 nM [2]: 0.1 OD450 | OD450 at 0.001 nM [2]: 0.14 OD450 | OD450 at 0.01 nM [2]: 0.42 OD450 | OD450 at 0.10 nM [2]: 1.61 OD450 | OD450 at 1.00 nM [2]: 2.55 OD450 | OD450 at 10 nM [2]: 2.49 OD450 | OD450 at 100 nM [2]: 3.09 OD450 | EC50 [3]: 1.1 nM | Maximum mean fluorescence intensity [3]: 54400 MFI | EC50 (read off the curve) [4]: ~0.05 nM | OD450 at 0.0001 nM [5]: 0.05 OD450 | OD450 at 0.001 nM [5]: 0.05 OD450 | OD450 at 0.01 nM [5]: 0.05 OD450 | OD450 at 0.10 nM [5]: 0.05 OD450 | OD450 at 1.00 nM [5]: 0.05 OD450 | OD450 at 10 nM [5]: 0.05 OD450 | OD450 at 100 nM [5]: 0.09 OD450 | Kd [6]: 0.00502 nM | koff [6]: 6.17e-07 s⁻¹ | kon [6]: 123000 M⁻¹ s⁻¹

— patent US20250042994A1 (HAINAN SIMCERE ZAIMING PHARMACEUTICAL, published 2025)
